Measured values from FireProtDB (doi:10.1093/protein/12.7.581).
“And” between values parts separate entries of the source, which are not always exact repeats. Identical values can stand only once.

Settings: Bos taurus; pH 7.4; Thermal; CD; Tris-HCl 20 mM; CaCl2 1 mM; reversible: yes(>95%); whole UniProt chain shown

B1: Alpha-lactalbumin wild type, P00711 (protein)
chain: MMSFVSLLLVGILFHATQAEQLTKCEVFRELKDLKGYGGVSLPEWVCTTFHTSGYDTQAIVQNNDSTEYGLFQINNKIWCKDDQNPHSSNICNISCDKFLDDDLTDDIMCVKKILDKVGINYWLAHKALCSEKLDQWLCEKL
  unfolding enthalpy (van 't Hoff): 64.5 kcal/mol and 73.8 kcal/mol and 73.4 kcal/mol
